Measurements as given in US6861399B2, “Cleaning compositions containing human serine protease T” (Ortho-McNeil Pharmaceutical , Inc., priority 1999, dated 2005).
Non-standard residues stand in square brackets, D forms with d. *: point of attachment. pNA = O=[N+]([O-])c1ccc(N*)cc1; HHT = not defined here

biological target: T1, activated protease T-HA6×HIS (Homo sapiens, UniProt Q9BQR3, D40A/M35I/Q39Y/Q42E/T41L); assay: Amidolytic activity of activated protease T on chromogenic pNA substrates; assay type: biochemical; conditions: substrate at 500 uM; 10 mM Tris-HCl pH 7.8, 25 mM NaCl, 25 mM imidazole; pNA release over 120 minutes at 37° C., 405 nm; N.A. = No Activity
T1 construct: made in house; host or cells: Sf9 insect cells (baculovirus)
T1 sequence (Q9BQR3 35-290 M35I/Q39Y/D40A/T41L/Q42E limits assumed): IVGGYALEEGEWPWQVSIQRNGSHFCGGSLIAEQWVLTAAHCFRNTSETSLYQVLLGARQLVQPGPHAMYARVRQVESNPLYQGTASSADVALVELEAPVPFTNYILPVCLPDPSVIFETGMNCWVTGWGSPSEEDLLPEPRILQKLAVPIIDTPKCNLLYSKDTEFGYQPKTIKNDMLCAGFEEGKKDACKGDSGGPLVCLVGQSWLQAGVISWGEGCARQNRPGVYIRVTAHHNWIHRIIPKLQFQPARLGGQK
Protocol: The conditioned medium from infected Sf9 cells was used to purify secreted recombinant PFEK-protease T-HA6×HIS zymogen. The medium was concentrated 5 to 10 fold using a Centriprep concentrator (Amicon Inc., Beverly, Mass.). 150 μl of a 50% Ni-NTA slurry (Qiagen, Valencia, Calif.) was added to 5 to 10 ml of the concentrated medium and mixed by shaking at 4° C. for 60 minutes. The zymogen-bound resin was washed 3 times with 1.5 ml of wash buffer (10 mM Tris-HCl (pH 8.0), 300 mM NaCl, and 15 mM imidazole), followed by with a 1.5 ml wash with ds H2O. Enterokinase cleavage was carried out by adding enterokinase (Novagen, Inc., Madison Wis.; or Sigma, St. Louis, Mo.) to the zymogen-bound Ni-NTA beads in a 150 ul volume at room temperature overnight with gentle shaking in a buffer containing 20 mM Tris-HCl (pH 7.4), 50 mM NaCl, and 2.0 mM CaCl2. The resin was then washed twice with 1.5 ml wash buffer. The activated protease T-HA6×HIS was eluted with elution buffer (20 mM Tris-HCl (pH 7.8), 250 mM NaCl, and 250 mM imidazole). Eluted protein concentration was determined by a Micro BCA Kit (Pierce, Rockford, Ill.) using bovine serum albumin as a standard. Amidolytic activities of the activated protease T-HA6×HIS was monitored by release of para-nitroaniline (pNA) from the synthetic substrates indicated in Table 1 and FIG. 6. […] Release of pNA was measured over 120 minutes at 37° C. on a micro-plate reader (Molecular Devices, Menlo Park, Calif.) with a 405 nm absorbance filter. The initial reaction rates (Vmax, mOD/min) were determined from plots of absorbance versus time using Softmax (Molecular Devices, Menlo Park, Calif.). […]
Amidolytic activities of the activated serine proteases are monitored by release of para-nitroaniline (pNA) from synthetic substrates that are commercially available (Bachem California Inc., Torrance, […].; American Diagnostica Inc., Greenwich, Conn.; Kabi Pharmacia Hepar Inc., Franklin, Ohio). […] Release of pNA is measured over 120 min at 37° C. on a micro-plate reader (Molecular Devices, Menlo Park, Calif.) with a 405 nm absorbance filter. […]

Question: Which “Specific Activity” value does the source give for “H-D-Lys(CBO)-Pro-Arg-pNA (H-[dK](CBO)-Pro-Arg-pNA) [commercially available chromogenic substrate]” here?
Answer: Its value is 0.057 ± 0.022 nmole pNA produced/min/μg protein.

Question: How did the “Specific Activity” value turn out when “H-D-Pro-HHT-Arg-pNA (H-[dP]-[HHT]-Arg-pNA; reading uncertain; also: printed as H-D-Pro-HHT-Arg-pNA) [commercially available chromogenic substrate]” was run?
Answer: The value was 0.010 ± 0.000 nmole pNA produced/min/μg protein.

Question: With “H-DL-Val-Leu-Arg-pNA (H-Val-Leu-Arg-pNA; also: DL-Val (racemic) at 1) [commercially available chromogenic substrate]” as the substance, how does the “Specific Activity” value read?
Answer: Its value is 0.016 ± 0.003 nmole pNA produced/min/μg protein.
